Reference: paper PMC2735609 (Cellular signalling, 2009)

Experiments:
Assay in all cases: radioligand binding
[1] = target: hLHR(D405N), on intact HEK293 cells (human, UniProt P22888 27-699, D405N)
[2] = target: hLHR(Y546F), on intact HEK293 cells (human, UniProt P22888 27-699, Y546F)
[3] = target: hLHR(D405N,Y546F), on intact HEK293 cells (human, UniProt P22888 27-699, D405N | Y546F)
hLHR(D405N,Y546F), on intact HEK293 cells, sequence (P22888 27-699 D405N/Y546F): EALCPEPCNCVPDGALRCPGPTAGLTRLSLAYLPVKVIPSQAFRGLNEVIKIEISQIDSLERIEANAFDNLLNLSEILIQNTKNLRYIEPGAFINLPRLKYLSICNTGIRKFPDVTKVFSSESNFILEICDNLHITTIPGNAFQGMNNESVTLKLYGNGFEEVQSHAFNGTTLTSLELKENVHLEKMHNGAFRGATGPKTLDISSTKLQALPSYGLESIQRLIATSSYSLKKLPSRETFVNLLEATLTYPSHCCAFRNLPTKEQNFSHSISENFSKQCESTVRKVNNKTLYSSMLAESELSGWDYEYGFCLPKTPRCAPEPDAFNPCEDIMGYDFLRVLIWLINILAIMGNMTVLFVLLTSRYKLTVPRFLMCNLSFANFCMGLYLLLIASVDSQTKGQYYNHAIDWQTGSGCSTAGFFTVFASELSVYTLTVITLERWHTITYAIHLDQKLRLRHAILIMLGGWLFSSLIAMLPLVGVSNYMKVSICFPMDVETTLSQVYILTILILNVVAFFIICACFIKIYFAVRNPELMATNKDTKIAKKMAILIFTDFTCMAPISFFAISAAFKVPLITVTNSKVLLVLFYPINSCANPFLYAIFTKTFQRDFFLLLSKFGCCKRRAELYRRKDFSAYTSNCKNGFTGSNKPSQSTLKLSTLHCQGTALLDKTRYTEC

hLHR(D405N), on intact HEK293 cells, sequence (P22888 27-699 D405N): as the sequence (P22888 27-699 D405N/Y546F) above, with F520Y counted along it
hLHR(Y546F), on intact HEK293 cells, sequence (P22888 27-699 Y546F): as the sequence (P22888 27-699 D405N/Y546F) above, with N379D counted along it

B1: human chorionic gonadotropin (hCG), highly purified recombinant, 125I-labelled (ligand)
chain 1: not shown
chain 2: SKEPLRPRCRPINATLAVEKEGCPVCITVNTTICAGYCPTMTRVLQGVLPALPQVVCNYRDVRFESIRLPGCPRGVNPVVSYAVALSCQCALCRRSTTDCGGPKDHPLTCDDPRFQDSSSSKAPPPSLPSPSRLPGPSDTPILPQ
modifications: 125I label (which chain is not stated) | 125I label (which chain is not stated)
With B1 the “hCG bound to intact cells” value [1] was 20.4 ng hCG/10^6 cells, the “hCG bound to intact cells” value [2] was 22.6 ng hCG/10^6 cells and the “hCG bound to intact cells” value [3] was 8.7 ng hCG/10^6 cells.
